Residue numbers refer to the chain shown, from its start. Blank lines part the entries; values can stand above or below the molecule they belong to.
Tests used:
[1] = test system: uropathogenic Escherichia coli (UPEC) strain EC958; experiment: Growth of UPEC strain EC958 with or without H2O2 oxidative stress (OD600, 12 h); format: cell-based; details: 0.8 mM H2O2
Description: FIG. 5 is a graphical representation showing effect of increasing RL5P concentrations on the growth of uropathogenic Escherichia coli (UPEC) strain EC958 under conditions of oxidative stress in the form of 0.8 mM H2O2. (A) EC958 was cultured±H2O2 (0.8 mM) in the presence of the indicated concentrations of RL5P for 12 h, during which growth was assessed (A600 at the indicated time points); (B) Area under the curve analysis for the 12 h period was calculated thereafter and is presented in FIG. 5B. Data are compiled from four independent experiments and are presented as mean±SEM. Each symbol represents a different experiment. Statistical significance for (B) was determined using repeated measure two-way ANOVA followed by non-parametric Kruskal Wallis test followed by Dunn's multiple comparison test (ns—not significant; * p<0.05; **** p<0.0001).
FIG. 6 is a graphical representation showing effect of increasing RL5P concentrations on the growth of UPEC under conditions of oxidative stress in the form of 1 mM H2O2. (A) EC958 was cultured±H2O2 (1 mM) in the presence of the indicated concentrations of RL5P for 12 h, during which growth was assessed (A600 at the indicated time points); (B) EC958 was cultured in the presence of the indicated concentrations of RL5P and the absence of H2O2 for 12 h, during which growth was assessed (A600 at the indicated time points). Data are compiled from four independent experiments and are presented as mean±SEM.
FIG. 7 is a graphical representation showing the effect of RL5P and 6-phosphogluconate (6PG) on the on the growth of UPEC under conditions of oxidative stress in the form of H202. (A) EC958 was cultured±H2O2 (0.8 mM) in the presence of the indicated concentration of RL5P or 6PG for 12 h, during which growth was assessed (A600 at the indicated time points); (B). Each symbol represents a different experiment. Statistical significance for (B) was determined using repeated measure two-way ANOVA followed by non-parametric Kruskal Wallis test followed by Dunn's multiple comparison test (ns—not significant; * p<0.05; **** p<0.0001).
All bacterial strains were cultured at 37° C. on solid or liquid Luria-Bertani (LB) medium. The non-pathogenic E. coli K12 strain MG1655 (Blattner et al., 1997. Science. 277:1453-1462) and EC958, a representative strain of the globally-disseminated multidrug-resistant ST131 clone isolated from the urine of a patient with a urinary tract infection (Totsika et al., 2011, PloS one. 6:e26578-e26578; Petty et al., 2014, Proc Natl Acad Sci USA. 111:5694-5699), were used in this study. […] Bacterial growth was assessed by monitoring OD600 using a POLARstar Omega (BMG Labtech) at 20-30 min intervals.

6PGD = target: T1, 6PGD (Mus musculus, UniProt Q9DCD0); experiment: 6PGD enzyme activity in lysates of HEK293 cells co-transfected with 6PGD and HDAC7 constructs; format: biochemical; details: molar ratio 1:1 (6PGD:HDAC), 24 h after transfection
T1 construct: host or cells: HEK293
T1 sequence (Q9DCD0 1-483): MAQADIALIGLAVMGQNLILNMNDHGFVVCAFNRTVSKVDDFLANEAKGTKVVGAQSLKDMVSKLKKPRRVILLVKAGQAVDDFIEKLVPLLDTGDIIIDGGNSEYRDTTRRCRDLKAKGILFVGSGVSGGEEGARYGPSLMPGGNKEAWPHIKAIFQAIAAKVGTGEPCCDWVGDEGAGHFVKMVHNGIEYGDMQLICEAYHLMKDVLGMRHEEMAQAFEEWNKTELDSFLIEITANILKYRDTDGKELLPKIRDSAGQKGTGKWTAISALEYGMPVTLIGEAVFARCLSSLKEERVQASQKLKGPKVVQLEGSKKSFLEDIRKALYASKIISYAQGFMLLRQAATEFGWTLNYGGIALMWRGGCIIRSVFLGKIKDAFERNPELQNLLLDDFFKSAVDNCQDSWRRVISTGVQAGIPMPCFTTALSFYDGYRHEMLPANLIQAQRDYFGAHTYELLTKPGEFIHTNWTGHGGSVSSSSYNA
Description: FIG. 19 is a graphical representation of HDAC7 increasing 6PGD enzyme activity in HEK293 cells. HEK293 cells were transfected with expression constructs encoding (A-B) 6PGD and/or HDAC7, (C-D) 6PGD and HDAC7 wild type (WT) or HDAC7 enzyme-dead (ED), (E-F) 6PGD and full-length (HDAC7), N-terminal HDAC7 (N-HDAC7) or C-terminal HDAC7 (C-HDAC7) at a molar ratio of 1:1 (6PGD:HDAC). After 24 h, cells were lysed and the enzymatic activity of 6PGD in lysates was measured. […] Statistical analysis was performed using repeated measure one-way ANOVA followed by Dunnett's multiple comparison (ns, not significant; * p<0.05; ** p<0.01). (B, D, F) Levels of 6PGD (Flag), HDAC7 (V5) and GAPDH expression in cell lysates were assessed via western blot.
6PGD activity can be enhanced by co-delivering HDAC7. HEK293 cells were plated in 12-well plates and incubated overnight at 37° C. The Lipofectamine 2000 (Invitrogen) transfection reagent was prepared in OptiMEM to a final concentration of 1 μg DNA per μL and incubated at room temperature for 5 min. Plasmid DNA was diluted in OptiMEM (Gibco) and then mixed with Lipofectamine 2000, after which the transfection mixture was incubated at room temperature for 30 min. Prior to transfection, cell culture media was replaced with OptiMEM, after which the transfection mixture was added into cells. Cells were then incubated at 37° C. for 6-8 h before being supplemented with fresh OptiMEM. 24 h post-transfection, culture supernatants were discarded, and cells were briefly washed with DPBS and lysed for different analyses.
Mouse HDAC7 (the unspliced isoform lacking the first 22 amino acids), an enzyme-dead (ED) mutant HDAC7 carrying an H-to-A mutation (Das Gupta et al., 2020, Cell Rep. 30:2712-2728.e2718), N-terminal HDAC7 (N-HDAC7, amino acid 23-504, comprising a PHA03247 super family motif corresponding to the herpes simplex virus-1 UL36 large tegument protein, which is known to comprise deubiquitinating activity) and C-terminal HDAC7 (C-HDAC7, amino acid 498-938) were cloned in pEF6/V5-His-TOPO vectors. Mouse 6PGD was cloned in a pCMV expression vector (MG53165-CF, Sino Biologicals). HEK293 cells were transiently transfected with expression constructs encoding 6PGD and HDAC7 at a molar ratio of 1:1. 24 h after transfection, cells were lysed and lysates were subjected to 6PGD activity assays using an in vitro assay (Abcam), as per the manufacturer's instructions. The enzymatic activity was determined by measuring absorbance at 460 nm in kinetic mode using a plate reader (Infinite M Plex, Tecan).

Molecule: O=C(O)[C@H](O)[C@@H](O)[C@H](O)[C@H](O)COP(=O)(O)O [6PG, 6-phosphogluconate, reference compound]
UPEC growth under oxidative stress [1]: did not affect UPEC growth

enzymatic activity of 6PGD relative to cells transfected with 6PGD alone (6PGD): significantly increases 6PGD activity
B1: HDAC7: Mouse HDAC7 lacking the first 22 amino acids, SEQ ID NO:13, expression construct (protein, listed as Mus musculus)
chain: MDLRVGQRPTVEPPPEPALLTLQHPQRLHRHLFLAGLHQQQRSAEPMRLSMDPPMPELQGGQQEQELRQLLNKDKSKRSAVASSVVKQKLAEVILKKQQAALERTVHPSSPSIPYRTLEPLDTEGAARSVLSSFLPPVPSLPTEPPEHFPLRKTVSEPNLKLRYKPKKSLERRKNPLLRKESAPPSLRRRPAETLGDSSPSSSSTPASGCSSPNDSEHGPNPALGSEADGDRRTHSTLGPRGPVLGNPHAPLFLHHGLEPEAGGTLPSRLQPILLLDPSVSHAPLWTVPGLGPLPFHFAQPLLTTERLSGSGLHRPLNRTRSEPLPPSATASPLLAPLQPRQDRLKPHVQLIKPAISPPQRPAKPSEKPRLRQIPSAEDLETDGGGVGPMANDGLEHRESGRGPPEGRGSISLQQHQQVPPWEQQHLAGRLSQGSPGDSVLIPLAQVGHRPLSRTQSSPAAPVSMLSPEPTCQTQVLNSSETPATGLVYDSVMLKHQCSCGDNSKHPEHAGRIQSIWSRLQERGLRSQCECLRGRKASLEELQSVHSERHVLLYGTNPLSRLKLDNGKLTGLLAQRTFVMLPCGGVGVDTDTIWNELHSSNAARWAAGSVTDLAFKVASRELKNGFAVVRPPGHHADHSTAMGFCFFNSVAIACRQLQQHGKASKILIVDWDVHHGNGTQQTFYQDPSVLYISLHRHDDGNFFPGSGAVDEVGTGSGEGFNVNVAWAGGLDPPMGDPEYLAAFRIVVMPIAREFAPDLVLVSAGFDAAEGHPAPLGGYHVSAKCFGYMTQQLMNLAGGAVVLALEGGHDLTAICDASEACVAALLGNKVDPLSEESWKQKPNLSAIRSLEAVVRVHRKYWGCMQRLASCPDSWLPRVPGADAEVEAVTALASLSVGILAEDRPSERLVEEEEPMNL
enzymatic activity of 6PGD relative to cells transfected with 6PGD alone (6PGD; listed as WT HDAC7): significantly increased the enzymatic activity of 6PGD to a similar level

B2: ED HDAC7: enzyme-dead mutant HDAC7 carrying an H-to-A mutation, SEQ ID NO:14 (protein)
chain: B1 chain with H635A
enzymatic activity of 6PGD relative to cells transfected with 6PGD alone (6PGD): significantly increased the enzymatic activity of 6PGD to a similar level

B3: N-terminal domain of HDAC7: N-terminal HDAC7, amino acid 23-504, SEQ ID NO:15 (protein, listed as Mus musculus)
chain: MDLRVGQRPTVEPPPEPALLTLQHPQRLHRHLFLAGLHQQQRSAEPMRLSMDPPMPELQGGQQEQELRQLLNKDKSKRSAVASSVVKQKLAEVILKKQQAALERTVHPSSPSIPYRTLEPLDTEGAARSVLSSFLPPVPSLPTEPPEHFPLRKTVSEPNLKLRYKPKKSLERRKNPLLRKESAPPSLRRRPAETLGDSSPSSSSTPASGCSSPNDSEHGPNPALGSEADGDRRTHSTLGPRGPVLGNPHAPLFLHHGLEPEAGGTLPSRLQPILLLDPSVSHAPLWTVPGLGPLPFHFAQPLLTTERLSGSGLHRPLNRTRSEPLPPSATASPLLAPLQPRQDRLKPHVQLIKPAISPPQRPAKPSEKPRLRQIPSAEDLETDGGGVGPMANDGLEHRESGRGPPEGRGSISLQQHQQVPPWEQQHLAGRLSQGSPGDSVLIPLAQVGHRPLSRTQSSPAAPVSMLSPEPTCQTQVLNSSET
enzymatic activity of 6PGD relative to cells transfected with 6PGD alone (6PGD): increased the enzymatic activity of 6PGD to similar levels to that of the WT HDAC7

enzymatic activity of 6PGD relative to cells transfected with 6PGD alone (6PGD): does not activate 6PGD
B4: C-terminal deacetylase domain of HDAC7: C-terminal HDAC7, amino acid 498-938, SEQ ID NO:23 (protein, listed as Mus musculus)
chain: MVLNSSETPATGLVYDSVMLKHQCSCGDNSKHPEHAGRIQSIWSRLQERGLRSQCECLRGRKASLEELQSVHSERHVLLYGTNPLSRLKLDNGKLTGLLAQRTFVMLPCGGVGVDTDTIWNELHSSNAARWAAGSVTDLAFKVASRELKNGFAVVRPPGHHADHSTAMGFCFFNSVAIACRQLQQHGKASKILIVDWDVHHGNGTQQTFYQDPSVLYISLHRHDDGNFFPGSGAVDEVGTGSGEGFNVNVAWAGGLDPPMGDPEYLAAFRIVVMPIAREFAPDLVLVSAGFDAAEGHPAPLGGYHVSAKCFGYMTQQLMNLAGGAVVLALEGGHDLTAICDASEACVAALLGNKVDPLSEESWKQKPNLSAIRSLEAVVRVHRKYWGCMQRLASCPDSWLPRVPGADAEVEAVTALASLSVGILAEDRPSERLVEEEEPMNL
